{
  "source": "the DeepSol protein solubility set",
  "data": [
    {"assay": "soluble on expression in E. coli; label from the status in PepcDB or PDB records", "values": [
      {"sequence": "MGSDKIHHHHHHMRLSNGDVIVFAGDSITDREKSNNAPLGYGYVNLFYNLMLAKHPETKITVINSGISGNTVIDLIDRWDDDVLSYKPNWISILIGINDLHKFLGGLTTFNPENYYENLRRLLKYTRKVLNNVNFILMTPFYISRNKLEGGFRAKVLELLPQYIEKVRLLSNEFSATYIDLHDTFKKLVNIREPNVYAPEPVHPNFTGHMVIALKLLEALEI", "soluble on expression in E. coli": "not soluble"},
      {"sequence": "MSLIAIYVRVSTEEQAIKGSSIDSQIEACIKKAGTKDVLKYADEGFSGELLERPALNRLREDASKGLISQVICYDPDRLSRKLMNQLIIDDELRKRNIPLIFVNGEYANSPEGQLFFAMRGAISEFEKAKIKERTSSGRLQKMKKGMIIKDSKLYGYKFVKEKRTLEILEEEAKIIRMIFNYFTDHKSPFFGRVNGIALHLTQMGVKTKKGEGHHHHHH", "soluble on expression in E. coli": "not soluble"},
      {"sequence": "RVTDAEHPGVQLEFTNNKGELVSYEAISPWQKNAAGVNFHTFYGFGAVDLDEAMKRARMTNNVLPAQIITPWANNATEVSVPDASLAGGSSNIAITDDITVESVQVKLTLEHSRLPDLAIELVSPSGTRSVLQTPRNGLVGQSLDPNITGYENQLMLSNQFYGENAKGEWTLRAIDTNGDEVFSFIAYFNSSAIYDVPMANNAKPGVIKNWSMRIFGH", "soluble on expression in E. coli": "not soluble"},
      {"sequence": "MSLTQNAVEKTPVTMLGLGAMGTALARTWLAAGHRLTVWNRTPARAAALAAEGARVADSAAEAVAANTLVIVCLLDDSSVDEVLAGIDLADTDLVNLTTSTPAQARARAEWANERGARYLDGGIMAVPPMIGVPEAGSYVFCSGSRELFERHQETLGIPAGTTYVGMDAGFAALHDMALLSAMYGMFAGVAHAFALIHKEDIDPTSLAPMLADWLVAMAPAVHQTADHLRSGDYTKGVVSTLAMQVAGTPTFLSTAEQQGVSPELLSPYFELMRRRLAEGSGEEDLTGVINLLVHEGHHHHHH", "soluble on expression in E. coli": "not soluble"},
      {"sequence": "MNNYSGDIVFMSGGNEEDQLAQCQAYVQRHNIQQLVKEAIVVLCIHKPDNPVLFLKDHFEKLNEQRAQEGGNPDAADDDDIIVEPPKRSGGRRTGISAEPIKEDDTEYKKVVIPKDDATRRSLESAMRKNLLFAHLEEDEQKTMYDAMFPVEKSAGETIIEQGEEGDNFYVIDKGTVDVYVNHEYVLTINEGGSFGELALIYGTPRAATVIAKTDVKLWAIDRLTYRRILMGSVTKKRKMYDEFLSKVQILADLDQWERANVADALERCDFEPGTHVVEQGQPGDEFFIILEGEANVLQKRSDDAPFDVVGHLGMSDYFGEIALLLDRPRAATVVAKTHLKCIKLDRNRFERVMGPVREILKRDVSNYNSYVKLMT", "soluble on expression in E. coli": "soluble"},
      {"sequence": "MRNLLQKCFKWQWLVCLAVGCCFSSCKDDEESTSGYDPNKPIVLTDFYPPEGKLATQVILNGSNFGDSKENVKVFFNDKEASVISVKDDRMLVLAPKRASTIEDPECVVKVQVHEQIEEYKQTFDYYIQTTVTTLVGGSTSAQVNPTGTIPLSEAQFRANIDRCICVDQDKNVFFLVDNDGKFAAFMLNEEADKLISLKSDINALFNSPVLGYNSKDDIVYQFWANRDSHEVYYFDPKTDYAPTTAISSISWDDPNFPNIEGFGVWAAKCNFTMGPDGKMYSRMLGGNLVRIDVENARGENLTNGDLVGTKDGSAYGLVFDPQDENVFYFSNNDKHCIYKYDLRTKECACWAGQEGKSGYLDGPIGQAMFNKPGQMCVDSEGNIILTDTENHCIRKITMSTGYVSTLAGKPQNSGYVNGSAEDAQFKKPLGICIDNDDVMYIGDSENRAIRRLAVELEHHHHHH", "soluble on expression in E. coli": "soluble"},
      {"sequence": "MGSDKIHHHHHHMDNAIVTSPSGSSPAEAQAFLDAHPEIEAFDIVLTDANGVGRGKIVRRHELKSIFEGGRHMPISILGLDITGEDVHETGLIWTTGDGDLRAWPIPGTLVPLYGTNPPRGQVLMAMYHLDGQPMSSDPRLALARQVDILAAKGLYPAGAFELEFFLLANERDADGKVQPARAVLDGRVSGKTEVYSVDHLHGMEPLFSDIYAAAKAQGIPAETVISEYAPGQYELTLNYRKDVMRAADDLVMLKRLVRAQARRHGVTACFMAKPIEKYAGSGMHFHVSLQDKAGRNVFAEAGGESWSLPLLQGLGGLIQTMAESMLVFAPHANSWRRFVSQSYAPVAPTWGVNNRSVALRVPAGDAKNRRIEHRPSGVDANPYLIAATVLAGIVKGLDEGLDPGPETTGNGYEAAVTRTTMPADWRAAIEAAKASSFLKGALGEDLHRTFVAIKQSEYLRVARTVSELDYHLYLHEV", "soluble on expression in E. coli": "not soluble"},
      {"sequence": "MGSDKIHHHHHHMTNNRLERFAHNLDWNLLRTFVVVVEEGSITAAANRLLLQQPAVSMALKRLEQTIGQKLIDRRPGRFDLTEAGEKLHLQCRDIFAAVIRLPHVLETAGEEITGHLNIHAVSHAHNPAWDRKLGSFFRMHPKVTISMTVATTVDVLSAVERNIATMGLCDGIIPEGLNKSFHIRERYALYCGRGHRLFGVEGVVFHDLRGDPYIAFIADVLGGQHMNSVTAVRAVGSFGQQVRGVSCNVEEVMRLIAANVGIGMLPDHIASEAVAAGDLWQLPPYRDLPTTDVFRISNPNSILNPAEAAFLAHVADTQALDHCHHQQD", "soluble on expression in E. coli": "not soluble"},
      {"sequence": "SLNGRPTTPNGAAGKWGDYRKCDTPKRTVDHMLNHIADTHSDIDFIIWTGDLPPHDVWNQTKEENLKVLKETVTQMTEKFPGIPIFPALGNHESAPVNSFPPPYVQQVDSSIAWLYDELDVQWRRWLPASVSHTVRRGAFYSVLVRPGYRIISLNMNYCNNKNWWLLLNSTDPATELQWFIYELQSAEFAGEKVHVIGHIPPGHSDCLKVWSRNYYKIVSRFESTITAQFFGHTHFDEFEVFYDPHDLSRATSIAYIGPSVTPYNDLNPGYRIYYIDGDHDETTRLVVDHESWIMNLKEANLYDYPIWYKLYSTRAAYGMKGLRPADWDQLINNMTDSKELFDLYYKHYWKASPVKPECDYECRKRILCDAKSGRSHDRKYFCEEVEAKIDESNKGWKDWLFS", "soluble on expression in E. coli": "not soluble"},
      {"sequence": "MHHHHHHMSGGLTPDQAIDAIRGTGGAQPGCRALHAKGTLYRGTFTATRDAVMLSAAPHLDGSTVPALIRFSNGSGNPKQRDGAPGVRGMAVKFTLPDGSTTDVSAQTARLLVSSTPEGFIDLLKAMRPGLTTPLRLATHLLTHPRLLGALPLLREANRIPASYATTEYHGLHAFRWIAADGSARFVRYHLVPTAAEEYLSASDARGKDPDFLTDELAARLQDGPVRFDFRVQIAGPTDSTVDPSSAWQSTQIVTVGTVTITGPDTEREHGGDIVVFDPMRVTDGIEPSDDPVLRFRTLVYSASVKLRTGVDRGAQAPPV", "soluble on expression in E. coli": "soluble"},
      {"sequence": "MAPPKRRSTRPTTPAAPTDPPIEEKKPDLLIAYDSDEKFVFSFSEEGLTAKECAEKMNGFSTKEQFLTEVHVDEMLRFLTKVIIGRKGEPLKCLCCDRLYVSSSGFLIHIKKCSTKNEQDRLTDAQNKYRNEPSKWLNVRKKDQIATLKTIVGTNYTCFMIGCSLNFGSLKDLIEHLATCIGADYYSYKNRPDDFRKLSKKAKQAYTLDAVTKNKGIVKCLVCDKEYTNHMSIIYHIDRCQVDKSLQPWKCWRCGFDATAADAQEHLIDCGRTAEMKMFDRLPESSSFGFPIPGSSVPSTSEPTTSAAAAPTKRKRVTGGAPRATPRKDGTTLYRFRKSTISRSSNGIVTKKDKKLYEDQCSKIFENWKQKSAEIAFCDTLSNIANSKWKLSILDSNDQFYRIFTRQSVTLVSGKTLGLQQTVPPGIRLDALKSREMLDEDDAPKATVGYCGAPINSINVAPGKTRDGSDVICVTTFANDTDLESDSSCVQFWKHKLGKKKKSHLELWFLIHLPLRGTILHATWLQKQHNDEMMTSLIGYVAFSTTIGQILIYKIDESRVPEAPDRGDNVHVIVADPDLTLRLPKSTDTPDDTFLNADVKMEGDDIVVLPTRIDESTVPLLKIAWSYHNGGATLAALTALGAIAIWNLDGGDLDMPRVNIEESWQSPPSDIAFWNIDHLVVGFREKIVKVISIETWDVMLEDNTAKNAGSRVHTDNRIVRSFFMFQSDHTAFPYPNATNLTYVHCDIDTMTMILVPTGNTHQLLTWDVAMCPAVGTLLSSGIDGRLVASATGRFLGNMRHSYFANRNVMALKRRRILKESQTMEEYLKEVKMEGSAEGSTSTSTTKISDDKINEPLEESITEHTEVCQKMWLDVQFDEIFEPTRPEFSCRDQRIESLNCVDGTTSRDWPVSFTGGEAGLLFAVSVKLHIEEMDL", "soluble on expression in E. coli": "not soluble"},
      {"sequence": "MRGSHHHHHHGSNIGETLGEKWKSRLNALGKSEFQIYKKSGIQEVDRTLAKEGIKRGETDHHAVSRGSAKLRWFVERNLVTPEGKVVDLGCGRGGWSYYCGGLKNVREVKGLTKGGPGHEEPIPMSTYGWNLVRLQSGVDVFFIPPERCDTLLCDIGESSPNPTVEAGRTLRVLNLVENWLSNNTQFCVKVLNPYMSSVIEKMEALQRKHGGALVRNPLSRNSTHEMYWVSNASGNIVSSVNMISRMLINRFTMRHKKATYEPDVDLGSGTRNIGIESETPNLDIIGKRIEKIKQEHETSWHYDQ", "soluble on expression in E. coli": "soluble"},
      {"sequence": "MRGSHHHHHHDDYDGIPNLTAVQISPNADPALGLEYPVRPPVPGAGGLNASAKGIHSIAIGATAEAAKGAAVAVGAGSIATGVNSVAIGPLSKALGDSAVTYGAASTAQKDGVAIGARASTSDTGVAVGFNSKADAKNSVAIGHSSHVAANHGYSIAIGDRSKTDRENSVSIGHESLNRQLTHLAAGTKDTDAVNVAQLKKEIEKTQENTNKRSAELLANANAYAD", "soluble on expression in E. coli": "soluble"},
      {"sequence": "MAHHHHHHMLMCAGRKRFYFSLPSSRALKNIVKLPLLEREDKQKIIHIWKEKYQNDKYVVADHIHISKYEQIKNNCKNNSHFIIPQRNQNGYINFYSQFIDHKLLFITALEEYNKLRANSTPYVTLHFFDELKSREIILTKLNIVNNVITKNQAIKFYNYILSFYSDANYFPYVCKFNNDSRNFHYDAFIDKFKHLC", "soluble on expression in E. coli": "not soluble"},
      {"sequence": "MGERGVEMRLRIRFESAECEVELYEEWAPETVRAIADALPIKSTANRWGDEIYFTTQVAVEKEENSKDVVELGDVAYWIPGKAICLFFGKTPISDDKIRPASAVNVIGRIVNSMEGLKGVADGESVVVERA", "soluble on expression in E. coli": "not soluble"},
      {"sequence": "SNAMKDKIIDNAITLFSEKGYDGTTLDDIAKSVNIKKASLYYHFDSKKSIYEQSVKCCFDYLNNIIMMNQNKSNYSIDALYQFLFEFIFDIEERYIRMYVQLSNTPEEFSGNIYGQIQDLNQSLSKEIAKFYDESKIKMTKEDFQNLILLFLESWYLKASFSQKFGAVEESKSQFKDEVYSLLNIFLKK", "soluble on expression in E. coli": "soluble"},
      {"sequence": "MCINIRLEKTRDIQSIHAITIAAFLDAPHTDHTEQFIVDALRDSGALSVSLIAEDSSKIIGHVALSPVTISDGSKDWYGLGPISVVPTDQNKGIGSKLMHAALRELNNLNANGCVLLGDPNYYRRFGFEPIGGLVLPDVPPEYFQATLLKGSYPTGVVTYHESFSAQS", "soluble on expression in E. coli": "not soluble"},
      {"sequence": "MSLKRSEFPENELWDLTALYKDRQDFLLAIEKALEDIKVFKKNYEGKLNCVEDFTSALMEIEHIYIQMSHIDTYAFMPQTTDFSNEEFAQISQAGSDFATKANVLLSFFNTALANADIKILDSLENNPHFKATIRQAKIQKQHLLSPEVEKALTNLNEVLNTPYDIYTKMRAGDFDMEDFEVDGKTYKNSFVTYENYFQNHENAEIREKSFRSFSKGLRKHQNAAAAAYLAKVKSEKLIADMRGYDSVFDYLLSEQEVDRSMFDRQIDLIMDEFGPVAQRFLKHIADVNGIEKMTFADWKLDIDNELNPEVSINDAYDLVMKSVAPLGKEYSQEVERYQKERWVDFAANANKDSGGYAADPYKVHPYVLMSWTGRMSDVYTLIHEIGHSGQFIFSDNHQSFFNTHMSTYYVEAPSTFNELLLSDYLENQFDTARQKRFALAHRLTDTYFHNFITHLLEAAFQRKVYTLIEEGGTFGAEQLNAIMKEVLTQFWGDAIEIDDDAALTWMRQAHYYMGLYSYTYSAGLVISTAGYLNLKNNPNGAKEWLAFLKSGGSRTPLETALLISADISTDKPLRDTINFLSNTVDQIINYSNLIEQEGHHHHHH", "soluble on expression in E. coli": "soluble"},
      {"sequence": "GMSAPEDWNSQVIQEFRANGGRVGGNFEGAPMVLVHHVGRKTGKAAVTPMMYLPSDDDPGTIYVFASKAGAASNPAWYYNLTTAGTAQVEVGTETYAVGVTEVTGEDRDRIYSEQARRYPGFADYEKKTAGIRTIPVLALTRT", "soluble on expression in E. coli": "soluble"}
    ]}
  ]
}
